According to the DeepSol protein solubility set:

Test: soluble on expression in E. coli; label from the status in PepcDB or PDB records
With “GIEIVNRKAVWYLTSEIKETETGIEVSAGELHKGDEEVFPVEEVSFDLTPDDTYPVEYMLYLHMNVQTKKVSWSLCKAYLDGEGYCDYQGNERLIMYPVSVTVFPNGTREGTIFLYEKEDREPDRKPPVIVEPQPVGEIGTPDIDE” the “soluble on expression in E. coli” value was “soluble”. For “GILDPEERYEHQLRQLNDMGFFDFDRNVAALRRSGGSVQGALDSLLNGDV”, the “soluble on expression in E. coli” value was “soluble”. In the case of “GLECDGKVNICCKKQFFVSFKDIGWNDWIIAPSGYHANYCEGECPSHIAGTSGSSLSFHSTVINHYRMRGHSPFANLKSCCVPTKLRPMSMLYYDDGQNIIKKDIQNMIVEECGCS”, the “soluble on expression in E. coli” value was “soluble”. With “GLEIHVQIDTKSKLFCNCSTNYLDAEPNTNVCPVCLGLPGAKPLPPNKKAVEVAIMVAKMLGCKIVVDEDIYFQRKHYDYPDLPSGYQRTSTPIGVDGEFMGIGIHEVHLEEDPGQYNPSFGIVDYNRSGTPLIEIVTKPDIKSPEEAREFLKQLMTLFRYLGCLRGEGTMRADVNISIEYMGVQGNRVEVKNVNSIKGVYKVLKYELIRQKNIIKR” the “soluble on expression in E. coli” value was “not soluble”. In the case of “GMDTNGVLYAANMTNALAKEIPESKWDIQLIPELGTLRKLFIHIVRVRDVYRDGLKTGSIKFPGRLASDEHRLLDELERSMEELVFEFKQTTFNSIKMGENYLSIMELLGTVIQHEGIHQGQYYVALKQSGINLPKQWVQDWHM”, the “soluble on expression in E. coli” value was “soluble”. In the case of “GMEGLVMNTRRALFADWRVREAMLLAFDFDLINRTLTGGAEPRIASYFSNSALGMEAGAPATGRERALLEPFAADLLPGTLDGYALPATHGASNRGNLRKAARLLSEAGWRIEDGMLEGPGGTPFAFEILLPQGADAMIAASIIYRQALTRLGISARITTVDPAQFKQRVDNQDFDMTSFLRSLTLSPGNEQLLYWSAEDKDLPGSRNLMGMESPAAEAVIRHMLATDDAEEFQASVRALDRVLTAGRYVIPMWYSR”, the “soluble on expression in E. coli” value was “not soluble”. In the case of “GMELKDIMHILEDMKVGVFATLDEYGNPHARHAHITAANEEGIFFMTSPETHFYDQLMGDQRVAMTAISEEGYLIQVVRVEGTARPVENDYLKTVFADNPYYQHIYKDESSDTMQVFQIYAGHGFYHSLTQGHKYIFSIGQGEHSEVRAL”, the “soluble on expression in E. coli” value was “soluble”. With “GMELTALDKLEIMELAARFEMSLDKEDVENYLATFASDGALQGFWGIAKGKEELRQGFYAMLDTFARGKRHCSSNAIIQGNYDEATMESYLTVVNREDLNRAGSAFVKDQVRKINGKWYLILRQIEVDPSLPLLQQSQQAGANA” the “soluble on expression in E. coli” value was “soluble”. In the case of “GMIQVPASFDIQGHRGCRGLLPENTIAAFTKALLLGVTTLEFDLVISKDNRVVVSHDTFFHHEITMMVDGEDVTEANEKNFNLYAMNYADIKEIDVGMKTHPRFKSQKKVPAVKPLFRELIETAEKLSAKIQYNGEIKSTVEGDNIDHPNIALFCDLVVAEIKKAHITDRFTLQSFDVRALEYMHSQYPDIKLSYLVETKGTLKKQLEKLSFTPAVYSPDVTLVSKKDIDAAHKLGMRVIPWTVNTKEEIETLISLGVDGIITDYPDLFFEK”, the “soluble on expression in E. coli” value was “soluble”. In the case of “GMIRLLYLLVKPAGMSDETFRAECLRHYEMSHDVPGLHKYEVRLVAEQPTDTHVPFFDIGHVDAIGECWFKDDAAYATYMASDIRKAWFEHGKTFIGQLKPFRTAPVAGDEPAS”, the “soluble on expression in E. coli” value was “soluble”. With “GMKFSKFGQKFTQPTGISQLMDDLGDALKSDQPVNMLGGGNPAKIDAVNELFLETYKALGNDNDTGKANSSAIISMANYSNPQGDSAFIDALVGFFNRHYDWNLTSENIALTNGSQNAFFYLFNLFGGAFVNEHSQDKESKSVDKSILLPLTPEYIGYSDVHVEGQHFAAVLPHIDEVTHDGEEGFFKYRVDFEALENLPALKEGRIGAICCSRPTNPTGNVLTDEEMAHLAEIAKRYDIPLIIDNAYGMPFPNIIYSDAHLNWDNNTILCFSLSKIGLPGMRTGIIVADAKVIEAVSAMNAVVNLAPTRFGAAIATPLVANDRIKQLSDNEIKPFYQKQATLAVKLLKQALGDYPLMIHKPEGAIFLWLWFKDLPISTLDLYERLKAKGTLIVPSEYFFPGVDVSDYQHAHECIRMSIAADEQTLIDGIKVIGEVVRELYDNK” the “soluble on expression in E. coli” value was “soluble”. In the case of “GMKSAPDWIAHPDTPYLLIDEAKLKSNINYLKQRVESLGSHLRPHLKTLRTLEAAGYLLDSKSAPATVSTLAEAEAYAKAGYTDLLYAVGIAPAKLKRVAALRQQGINLHILLDNITQAQAVVDYAAEFGQDFSVFIEIDSDDHRGGIKPSDSKLLTIAKTLGEHFTGLMTHAGGSYACNTEQGLKNFAKQECDAVRIARNNLETAGIHCAITSVGSTPTAHFGEDFSDISEVRAGVYTTFDLVMKNIGVCDFSHIAMSVVTTVIGHNKEKNWLLTDSGWMALSRDSGTAGQNRDFGYGQVCKIDGSVLDGLCVNSTSQEHGVIELSDAYQLEDFPVGHQLRIMPNHACATAAMHPVYHVLMSDGSHNTWQRITGW”, the “soluble on expression in E. coli” value was “soluble”. With “GMKTQITTRDLVLEFIHALNTENFPAAKKRLNENFTFNGPMGHREGSERYMNDMEKMKFKYVVHKMFEEGNDVCLIYDINMNGKTIAASGLYHLEKGEITSLHVYFDPRPLFEE” the “soluble on expression in E. coli” value was “soluble”. In the case of “GMMTDEARAKLAAIPMLAGYTGPLERLGGLTNLVFRAGDLCLRIPGKGTEEYINRANEAVAAREAAKAGVSPEVLHVDPATGVMVTRYIAGAQTMSPEKFKTRPGSPARAGEAFRKLHGSGAVFPFRFELFAMIDDYLKVLSTKNVTLPAGYHDVVREAGGVRSALAAHPLPLAACHCDPLCENFLDTGERMWIVDWEYSGMNDPLWDLGDLSVEGKFNANQDEELMRAYFGGEARPAERGRVVIYKAMCDLLWTLWGLIQLANDNPVDDFRAYADGRFARCKALMETPEFSRHLAAVRMG”, the “soluble on expression in E. coli” value was “soluble”. In the case of “GMNNRELYGNIRDVYHLLQKNLDKAIEQYDISYVQFGVIQVLAKSGKVSMSKLIENMGCVPSNMTTMIQRMKRDGYVMTEKNPNDQRETLVYLTKKGEETKKQVDVQYSDFLKENCGCFTKEEEGILEDLLLKWKKHLN”, the “soluble on expression in E. coli” value was “soluble”. For “GMNVNFINPFLQSLLNVISTMASLELTPGKPQIKTDNLAKGDVSGLIGMVGPQTKGSLSITFEQKLVLQIMQNMLGENPGKINEEVTDLVGEITNMVTGGAKNLLGQKGYEFEMATPMVVSGQGHTISHKANGTKIIMPFTSSYGTAFIEVCFES”, the “soluble on expression in E. coli” value was “soluble”. For “GMQKPHLLITSAGRRAKLVEYFVKEFKTGRVSTADCSPLASALYMADQHYIVPKIDEVEYIDHLLTLCQDEGVTALLTLIDPELGLLAQATERFQAIGVTVIVSPYAACELCFDKYTMYEYCLRQGIAHARTYATMASFEEALAAGEVQLPVFVKPRNGSASIEVRRVETVEEVEQLFSKNTDLIVQELLVGQELGVDAYVDLISGKVTSIFIKEKLTMRAGETDKSRSVLRDDVFELVEHVLDGSGLVGPLDFDLFDVAGTLYLSEINPRFGGGYPHAYECGVNFPAQLYRNLMHEINVPQIGQYLDDIYMLKHDTVTLISAAELQKIKR”, the “soluble on expression in E. coli” value was “soluble”. For “GMSAGKTVVIALGGNAMLQAKEKGDYDTQRKNVEIAASEIYKIHKAGYKVVLTSGNGPQVGAIKLQNQAAAGVSPEMPLHVCGAMSQGFIGYMMSQAMDNVFCANNEPANCVTCVTQTLVDPKDQAFTNPTKPVGRFYTEQEAKDLMAANPGKILREDAGRGWRVVVPSPRPLEIVEYGVIKTLIDNNVLVICTNGGGIPCKRENKVISGVDAVIDKDLATSLLAKTLNSDYLMILTDVLNACINYKKPDERKLEEIKLSEILALEKDGHFAAGSMGPKVRAAIEFTQATGKMSIITSLSTAVDALNGKCGTRIIKD”, the “soluble on expression in E. coli” value was “soluble”. With “GMSETITFPPLMTGEAAGPGQDPFDLACQKAELGVDAGLVVYELGTDVLRAALVLAPEVPLAKAMAMLPVCGVGFQNALGALAPPEVAVHLDWNGALRINGARCGRLRIAASTDDPDTQPDWLVVGLDLPLWPEGDGGETPDETALYAEGCADVAAPRLLESWARHCLHWINRWDEGELETIHGEWRGLAHGMGEARTEAGRSGTFLGVDEDFGMLLRDETTTHLIPLTTVLVQD” the “soluble on expression in E. coli” value was “soluble”. In the case of “GMSKLSLIQQLKQQKLSVGILSANWLQLNEEVTTLLENQINVLHFDIADGQFSSLFTVGAIGIKYFPTHCFKDVHLMVRNQLEVAKAVVANGANLVTLQLEQYHDFALTIEWLAKQKTTYANQVYPVLIGACLCPETPISELEPYLDQIDVIQLLTLDPRNGTKYPSELILDRVIQVEKRLGNRRVEKLINIDGSMTLELAKYFKQGTHQIDWLVSGSALFSGELKTNLKVWKSSIM”, the “soluble on expression in E. coli” value was “soluble”. In the case of “GMSPQSMLTSPQHPRRTTMVISHGTLSASAEHAAHLRQLLVHIAQATRQEDGCLLYLVSEDLSQPGHFLITEHWDNLGAMHTHLALPGVTQAIDALKHLNVTDLKITAYEAGEAINIMG”, the “soluble on expression in E. coli” value was “soluble”. In the case of “GMSSKAEKDIKWGIAPIGWRNDDIPSIGKDNNLQQLLSDIVVAGFQGTEVGGFFPGPEKLNYELKLRNLEIAGQWFSSYIIRDGIEKASEAFEKHCQYLKAINAPVAVVSEQTYTIQRSDTANIFKDKPYFTDKEWDEVCKGLNHYGEIAAKYGLKVAYHHHMGTGIQTKEETDRLMANTDPKLVGLLYDTGHIAVSDGDYMALLNAHIDRVVHVHFKDVRRSKEEECRAKGLTFQGSFLNGMFTVPGDGDLDFKPVYDKLIANNYKGWIVVEAEQDPSKANPLEMAQIAHRYIKQHLIEN”, the “soluble on expression in E. coli” value was “soluble”. For “GMSSNVSHFEGTRPVADQQRFDTEALEAWMRQHVEGFAGPLSVEQFKGGQSNPTFKLVTPGQTYVMRAKPGPKSKLLPSAHAIEREYRVMDALAGTDVPVAKMYALCEDESVIGRAFYIMEFVSGRVLWDQSLPGMSPAERTAIYDEMNRVIAAMHTVDYQAIGLGDYGKPGNYFQRQIERWTKQYKLSETESIPAMDSLMDWLPQHIPQEDADLTSIVHGDYRLDNLMFHPTEPRVLAVLDWELSTLGHPMGDFGYHCMSWHIAPGQFRGIAGLDHAALGIPDEASYRKLYEQRTGRPITGDWNFYLAFSMFRIAGILQGIMKRVVDGTASSAQALDAGKRARPMAEMGWEYAKKAKQ”, the “soluble on expression in E. coli” value was “soluble”. In the case of “GMSVKVSVDDIDGITEVLNVYMNAAESGTGEEMSAAFHKDATIFGYVGDKLAFNGPIKDLYDWHNSNGPAKNVQSRITNIDIVGTVAHARVEAENWTNFKFSDLFLLLKLDGKWTIVNKVFHLHA”, the “soluble on expression in E. coli” value was “soluble”. In the case of “GMTLTRDSLLTLEAYAKVRRQEHARVIAHKKRRAVSIGNHLRLLFEDETTIRYQIHEMLHIEKIFDEDGIQAELDAYLPLVPDGSNLKATLQIEYENETQRRAALARLVGIEDRVFLRVDDEAPVYAIADEDLERDTAEKTSAVHFLRFELGDAMKAKLKAGAPLSIGCDHPHYPIQAARIDPDVAASLAGDLD”, the “soluble on expression in E. coli” value was “soluble”. For “GMTTENTTALLLIDFQNDYFSTYNGAKNPLVGTEAAAEQGAKLLAKFRQQGLPVVHVRHEFPTDEAPFFLPGSDGAKIHPSVAAQEGEAVVLKHQINSFRDTDLKKVLDDAGIKKLVIVGAMTHMCIDAVTRAAEDLGYECAVAHDACATLDLEFNGITVPAAQVHAAFMSALSFAYANVASADELIAGL”, the “soluble on expression in E. coli” value was “soluble”. For “GMTTNTIMEQEARTAPQKIAEQLLANDAITESLGSVLREFKPKFVMIVGRGSSDHAGVFAKYLFEIEASIPTFAAAPSVASVYGKTLKLAGGLVIVISQSGRSPDILAQARMAKNAGAFCVALVNDETAPIKDIVDVVIPLRAGEEKAVAATKSYLATLSALLQVAAKWTQNESLVEAVNSLPQALQAAVDAEPQLRAGSLTDVKNLVVLGRGFGYAVSKEIALKLKEVCAIHAEAFSSAEFLHGPVTLVEKKLSILDVCIRDESYGSHVEQIANVKQRGANLIHLHQTSADIHPRIAPLALLQRFYIDVAAVAIALGINPDKPAGLKKVTQTL”, the “soluble on expression in E. coli” value was “soluble”.
